According to patent US20180155451A1 (published 2018):
Substitutions are numbered along the chain they refer to. Read-outs that look alike come from different tables or passages of the source.

Columns and labels:
Assay in all cases: SPR (Biacore), antibody captured on chip, FcgR extracellular domain as analyte
[1] = target: T1, FcgRIIa H (human, UniProt P12318 34-217)
T1 construct: extracellular domain; also called FcγRIIa H; FcγRIIa type H; not shown: His tag attached to the C terminus
T1 sequence (looked up): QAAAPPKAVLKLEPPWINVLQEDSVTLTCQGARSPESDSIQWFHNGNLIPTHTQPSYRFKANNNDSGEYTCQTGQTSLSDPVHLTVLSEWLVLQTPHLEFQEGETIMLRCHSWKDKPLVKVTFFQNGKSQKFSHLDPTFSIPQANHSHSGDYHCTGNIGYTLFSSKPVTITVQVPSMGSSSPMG

[2] = target: T2, FcgRIIIa V (human, UniProt P08637 17-208)
T2 construct: extracellular domain; also called FcγRIIIa V; not shown: His tag attached to the C terminus
Protocol: (§1) Specifically, H240-Kn120 (SEQ ID NO: 99) resulting from introduction of S239M into H240-Kn067 and H240-Kn126 (SEQ ID NO: 100) resulting from introduction of Y235Q into H240-Kn120 were prepared according to the method described in Reference Example 1. […] Those described above were assayed for the binding to each FcgR according to the method described in Reference Example 8.
(§2) Analysis of interaction between obj ective antibody and the FcγR was carried out using Biacore T100 (GE Healthcare), Biacore T200, Biacore A100, and Biacore 4000. HBS-EP+ (GE Healthcare) was used as the running buffer, and the measurement temperature was set to 25° C. Chips produced by immobilizing the antigen peptide by the amine coupling method to a Series S sensor Chip CM5 (GE Healthcare), chips produced by allowing preliminarily biotinylated antigen peptides to interact with and immobilize onto a Series S Sensor Chip SA (certified) (GE Healthcare), chips produced by immobilizing Protein L (ACTIGEN, BioVision) to Series S Sencor Chip CM5 (GE Healthcare), or chips produced by immobilizing Protein A/G (Thermo Scientific) to Series S Sencor Chip CM5 (GE Healthcare) were used. Antibodies of interest were captured onto these chips, and allowed to interact to each FcγR diluted with running buffer. To regenerate and repeatedly use the chip, the antibodies captured onto the chip were washed off by reacting 10 mM glycine-HCl, pH 1.5.

[3] = target: T3, FcgRIIb (human, UniProt P31994 43-217)
T3 construct: extracellular domain; Expressed in FreeStyle293 cells and purified; used as analyte in Biacore; also called FcγRIIb; CD32B; not shown: His tag attached to the C terminus
T3 sequence (looked up): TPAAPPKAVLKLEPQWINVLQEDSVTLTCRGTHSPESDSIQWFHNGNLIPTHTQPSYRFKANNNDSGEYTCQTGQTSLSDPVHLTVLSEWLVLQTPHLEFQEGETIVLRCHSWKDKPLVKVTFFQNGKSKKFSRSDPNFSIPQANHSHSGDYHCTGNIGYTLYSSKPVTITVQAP
Protocol: as §1, §2

[4] = target: T4, FcgRIa (human, UniProt P12314 16-292)
T4 construct: extracellular domain; Expressed in FreeStyle293 cells and purified; used as analyte in Biacore; also called FcγRIa; FcγRI; not shown: His tag attached to the C terminus
Protocol: as §1, §2

[5] = target: T5, FcgRIIa R (human, UniProt P12318 34-217)
T5 construct: extracellular domain; also called FcγRIIa R; FcγRIIa type R; not shown: His tag attached to the C terminus
T5 sequence (looked up): T1 sequence (looked up) with H134R
Protocol: as §1, §2

[6] = target: T1, FcgRIIa H; remark: listed apart in the source
Protocol: as §1, §2

[7] = target: T6, FcgRIIIa F (human, UniProt P08637 17-208)
T6 construct: extracellular domain; also called FcγRIIIa F; not shown: His tag attached to the C terminus
Protocol: as §1, §2

T6 sequence (P08637 17-208): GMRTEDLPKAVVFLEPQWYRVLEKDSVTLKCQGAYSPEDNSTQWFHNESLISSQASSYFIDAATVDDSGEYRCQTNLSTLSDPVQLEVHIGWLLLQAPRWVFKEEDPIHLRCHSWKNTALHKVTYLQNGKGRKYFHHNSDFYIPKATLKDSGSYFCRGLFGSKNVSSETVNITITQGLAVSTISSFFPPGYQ
T4 sequence (P12314 16-292): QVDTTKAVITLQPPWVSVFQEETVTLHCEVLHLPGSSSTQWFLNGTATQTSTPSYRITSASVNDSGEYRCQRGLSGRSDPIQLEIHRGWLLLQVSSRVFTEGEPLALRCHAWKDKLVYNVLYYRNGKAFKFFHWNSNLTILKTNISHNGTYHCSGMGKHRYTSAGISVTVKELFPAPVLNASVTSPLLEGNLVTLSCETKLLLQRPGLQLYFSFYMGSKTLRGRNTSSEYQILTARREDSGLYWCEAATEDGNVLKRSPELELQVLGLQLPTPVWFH
T2 sequence (P08637 17-208 F176V limits assumed): as the sequence (P08637 17-208) above, with F160V counted along it

- Kd [1]: 780 nM
- Kd [2]: 6.9 nM
- Kd [3]: 2600 nM
- Kd [4]: 0.43 nM
- Kd [5]: 490 nM
- Kd [6]: 780 nM
- Kd [7]: 79 nM
B1: H240-afucosyl_G1d/L73-k0 (antibody, human IgG1, kappa)
heavy: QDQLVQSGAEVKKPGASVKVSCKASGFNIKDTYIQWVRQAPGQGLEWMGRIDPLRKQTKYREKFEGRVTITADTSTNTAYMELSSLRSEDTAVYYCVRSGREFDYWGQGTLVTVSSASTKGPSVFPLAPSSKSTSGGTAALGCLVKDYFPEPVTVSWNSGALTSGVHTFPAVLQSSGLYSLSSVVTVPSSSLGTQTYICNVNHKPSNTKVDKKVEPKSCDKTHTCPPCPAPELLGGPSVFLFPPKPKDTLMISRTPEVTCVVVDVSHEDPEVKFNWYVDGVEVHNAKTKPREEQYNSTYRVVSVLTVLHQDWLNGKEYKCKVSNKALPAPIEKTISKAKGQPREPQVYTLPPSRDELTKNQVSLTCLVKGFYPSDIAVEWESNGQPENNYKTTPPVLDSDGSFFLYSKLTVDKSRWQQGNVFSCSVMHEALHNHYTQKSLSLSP
light: DIQMTQSPSSLSASVGDRVTITCRASQDIHKYIAWYQQKPGQAPRLLIQYTSTLQPGVPSRFSGSGSGTDYTFTISSLQPEDIATYYCLQYEQLRTFGGGTKVEIKRTVAAPSVFIFPPSDEQLKSGTASVVCLLNNFYPREAKVQWKVDNALQSGNSQESVTEQDSKDSTYSLSSTLTLSKADYEKHKVYACEVTHQGLSSPVTKSFNRGEC
modifications: fucose removed from the sugar chain (afucosylated); amino acid sequence same as H240-G1d
notes: Anti-EREG IgG1 obtained by afucosylating H240-G1d/L73-k0; also called afucosylated antibody
